# Results taken from the nanobody polyreactivity screen of Harvey et al. (2022).
# Assay: yeast display, Sf9 membrane polyspecificity reagent, FACS + sequencing; frameworks hold sequencing errors
# How it was run: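 Nanobodies came from a synthetic yeast display library in Saccharomyces cerevisiae BJ5465, induced with galactose for 36–48 hours and stained for 1 hour at 4 °C with 10% biotinylated, detergent-solubilized Sf9 membrane reagent. Cells were enriched on streptavidin microbeads and then FACS-sorted, with low and high (top ~1%) gates set on anti-HA fluorescence for expression and streptavidin fluorescence for reagent binding. Each polyreactivity label reflects the gate a clone came from. Genes were amplified by colony PCR, sequenced by MiSeq 2 × 250 and filtered by CDR length.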
row,Sequence,polyreactivity (PSR sort gate)
1,QVQLVESGGGLVQAGGSLSLSCAASGRTFTPNVMGWYRQAPGKERELVAGISSTGGSTYYADSVKGRFTISRDNAKNTVYLHMNSLKPEDTAVYYCAKEYYDGYFPTFDYDYWGQGTQVTVSS,low polyreactivity
2,QVQLVESGGGLVQAGGSLRLSCAASGFTFALYAMGWYRQAPGKEREFVAAITRSGGITYYADSVKGRFTFSRDNAKNTVYLQINSLKPEDTAVYYCAAVPRWSVYRAYGYWGQGTQVTVSS,high polyreactivity
3,QVQLVESGGCVVQAGGSLRLICAASGRTFGRNVMGWYRQAPGKEMELVAAISRSGGSTYYADSVKGRFTISRDNAKNTVYLQMNSLKPEDTAVYYCAAYSVGDYYWGQGTQVTVSS,high polyreactivity
4,QVQLVESGGGLVQAGGSLRLSCAASGSTFVPYTMGWYRQAPGKERELVAVISSSGGNTYYADSVKGRFTISRDNAKNTVYLQMNSLKPEDTAVYYCNKDYWYPNYRRYEYWGQGTQVTVSS,low polyreactivity
5,QVQLVESGGGLVQAGGSLRLSCAASGGTFYFYAMVWYRQAPGKERELVAAISRSGGSTYYADSVKGRFTISRDNAKNTVYLQMNSLKPEDTAVYYCAARYTGGGIRYDYWGQGTQVTVSS,high polyreactivity
6,QVHLVESGGGLVQAGGSLRLSCAAYGRNFQYNAMGWDRQAPGKEREFVASISGSGGRTYYADSVKGRFTISRDNAKNTVYLQMNSLKPEDTAVYYCNASLLFPLLYGPESGEFDYWGQGSQVTVSS,low polyreactivity
7,QVQLVESGGGLVQAGGSLRLSCAASGSIFLVYAMGWYRQAPGKERELVAAISRSGRTYADSVKGRFTISRDNAKNTVYLQMNSLKPEDTAVYYCNKLAVRPGYGSTYDYWGQGTQVTVSS,high polyreactivity
8,QVQLVESGGGLVQAGGSLRLSCAASGSTCASYAMGWYRQAPGKERELVAAITDSGGSTYYADSVKGRFTISRDNAKNTVYLQMNSLKPEDTAVYYCAAYGAYFSYHDYEYWGHGTQVTVSS,low polyreactivity
9,QVQLVESGGGLVQAGGSLRLSCAASGITFYRNAMGWYRQAPGKERELVAAIDVGDGTYYADSVKGRFTISRDNAKNTDYLQMNSLKPEDTAVYYCNKTFLFLEYDSWGQGTQVTVSS,low polyreactivity
10,QDQLVESGGGLVQAGCSLRLTCAASGSTFSYYAMGWYRQAPGKERELVADISWSGGSTYYADSVKGRFTISRDNAKNTVYLQMNSLKAAHTAVYYCAARGGSVLRYGKYYYWGQGTQVTVSS,low polyreactivity
11,QVQLVESGGGLVQAGGSLRLSCAASGRNLPSYAMGWYRQAPGKERELVAAISGSGGRTYYSDSVKGRFTISRDNAKNTVYLQMNSLKQEDTAVYYCAARQDDYGKINYYWGQGTQVTVSS,high polyreactivity
12,EVQLVESGGGLVQAGGSLRLSCAASGFTFGVYARGWYRQAPGKERELVAAITWGDGSTYYADSVKGRFTISRDNAKNTVYLQMNSLKPEDTAVYYCNAVTRRHKYYYWGQGTQVTVSS,high polyreactivity
13,QVQLVESGGGLVQAGGSLRLSCADSGSTFSYYAMGWYRQAPGKEGELVAAISARGGSTNYADSVKGRFTISRDNAKNTVYLQMNSLKPEDTAVYYCAAYDPLVDYFRYAYSDDYWGQGTQVTVSS,high polyreactivity
14,QVQLVESGRGLVQAGGSLRLSCAASGRIFFRYAMGWYRQAPGKAMELVAALPKSGGSTYADSVKGRFTISRDNAKTTVSLQMNSLKPEDTAVDDCATETTHYRDSGYIVKYRSEYWGQGTQVTVSS,low polyreactivity
15,QVQLVESGGGLVQAGGSLRLSCAASGITFLSNAMGWYRQAPGKERELVAAISRGGGTTYYADSVKGRFTISRDNAKNTVYLQMNSLKPEDTAVYYCATESTHTRRSWYEYWGQGTQVTVSS,high polyreactivity
16,QVQLLESGGGLVQAGGSLRLSCAASGSIFGGNARGWSRQAPGKERELVAAITYSGGSTYYADSVKGRFTISRDNAKNTVYLQMNSLKPEDTAVYYCNADGVVTWYDYWGQGTQVTVSS,low polyreactivity
17,QVQLVESGGGLVQAGGSLRLSCDASGFTLEKNAMGWYRQAPGKERELVADISSTDSTNYADSVKGRFTISRDNAKNTVYIQMNSLKPEDTAVYYCGRYDGPGTEEFDYWGQGTQVTVSS,low polyreactivity
18,QVQLVESGGGLVQAGGSLRLSCAASGIIFAGNAMGWYRQAPGKERELVAVITSGGSTYYADSVKGRFTISRDNAKNTVYLQMNSLKPEDTAVYYCNKVYYAYRVSLYRYGYWGQGTQVTVSS,high polyreactivity
19,QVQLVESVVGLVQAGGSLRLSCDASGRIFRYYAMGWYRQAPGKERELVARITSSGSTYYADSVKGRFTISRDNAKNTVYLQMNSLKPDDTAVYYCAADWYWGGIVDSWGQGTQVTVSS,high polyreactivity
20,QVQLVESGGGLVQAGGSLRLSCAASGFTFEKNAMGWDRQAPGKERELGAAISRGGSTYADSVKGRFTISRDNAKNTVHLQINSLKPEDTAVYYCAADTVYIFSSAINGEFGDWGQGTQVTVSS,low polyreactivity
21,QVQLVESGGGLVQAGGSLRLSCAASGSIFGWYAMGWYRQAPGKERELVAAITFSSVSTYYADSVKGRFTISRDTAKNTVYLQMNSLKPEDTAVYYCAAVVYYTFDYWGQGTQVTVSS,low polyreactivity
22,QVQLVESGGGLLQAGGSLRLSCAASGRTYYTNAMGWYRQAPGKERELVAAISRGGGRTYYADSVKGRFTISRDNAMNSVYLQMNSLKPEDTAVYYCAASPYQGQGREYYYWGQGTQVTESS,high polyreactivity

row,Sequence,polyreactivity (PSR sort gate)
1,QVQLVESGGGLVQAGGSLRLSCAASGRIFRKYGMGWYRPAPGKERELVAAITGGGSTYYADSVKGRFTISRDNAKNTVYVQMNSLKPEDTAVYYCARGGYRWYPYVYVPSPFDYWGQGTQVTVSS,high polyreactivity
2,QVQLVESGGGLVQAGGSLRLSCAASGSIFAGYAMGWYRQAPGKERELVAAISWSGGGTYYADSVKGRFTISRDNAKNTVYLQMNSLKPEDTAVYYCNAYGYRHRGNGYWGQGTQVTVSS,high polyreactivity
3,QVQLQESGGGLEQAGGSLRLSCAASGYISDIGPMGWSRQAPGKEREFVATIVVGSTTNYADSVKGRFTISRDNAKNTVYLQPESGRFRGVLLRGWLLAVGKFTYWGQGTQETVSS,low polyreactivity
4,QFQLVESGGGLVQAGGSLRLSYAASGRTFSSYAMGWYRQAPGKERELVAAITKRGGNTYYADSVKGRFTISRDNAKNTVYLQMNSLKPEDTAVYYCAAGWERFRNYNYWGQGTQVTVSS,high polyreactivity
5,QVQLVESGGGLVQAGGSLRLSCAASGRIFWGNAMGWYRQAPGKERELVAAISSSGGSTYYADSVKGRFTISRDNAKNTVYLQMNSLKPEDTAVYYCAARYPTYYYRYDYWGQGTQVTVSS,high polyreactivity
6,QVQLVESGGGLVQAGGSLRLSCAASGTIFGYYAMGWYRQAPGKERELVAAITSDGDTYYADSVKGRFTISRDNAKNTVYLQMNSLIPEDTAVYYCNATYGGPYYIQYDYWGQGTQVTVSS,low polyreactivity
7,QVQLVESGGGLVQAGGSLRLSCAASGFTFAWYAMGWYRPAPGKERELVAAISGSGGRTYYADSVKGRFTISRDNAKNTVYLQMNSLKPEDTAVYYFNTDRYWGKGDYWGQGTLVTVSS,high polyreactivity
8,QVQLVESGGGLVQAGGSLRLSCAASGYIFVRNAMGWYRQAPGKERELVAAISGSGGSTYYADSVKGRFTISRDNAKNTVYLQMNSLKPVDTAVYYCAADYATVTWRGIAYDYWGQGTQVTVSS,low polyreactivity
9,QVQLVESGGGLVQAGGSLRLSCAASGSIFRQYAMGWYRQAPGKERELVAAINYSGGNTYYADSVKGRFTISRDNAKNTVYLQMNSLKPEDTAVYYCAADSVRHFWWAYYYWGQGTQVTVSS,low polyreactivity
10,QVQLVESGGGLVQAGGSLRLSCAASGFAFSYYAMGWYRPAPGKEREFVASIDWSGGSTYYADSVKGRFTISRDNAKNTVYLQMTSLKPEDTAVYYCAAELDYFPGYDYWGQGTQVTVSS,low polyreactivity
11,QVQLVESGGGLVQAGGSLRLSCAASGFTFYFYAMGWYRQAPGKERELVAAISRGGSTTYADSVKGRFTISRDNAKNTVYLQMNSLKPEDTAVYYCAKDRRRWYYTRDYWGQGTQVTVSS,low polyreactivity
12,QVQLVESGGGLVQAGGSLSLSCAASGSILVGYAMGWYRQAPGKERELVARISTSGGSTTYYADSVKGRFTISRDNAKNTVYLQMNSLKPEDTAVYYCAADYKPYYRRRYDYWGQGTQVTVSS,low polyreactivity
13,QVQLVESGGGLVQAGGSLRLSCAASGSIFSYYVMGWYRQAPGKERELVAAISYSGGRTYYADSVKGRFTISRDNAKNTVYLQMNSLKQEDTAVYYCARRSYVYPYGYDYWGQGTQVTVSS,high polyreactivity
14,QVQLVESGGGLVQAGGSLRLSCAASGSTFFLYAMGWYRQAPGKERELVAAINYIGGTYYADSVKGRFTISRDNAKNTVYLQMNSLKPEDTAVYYCAASYVGTIAGMDYWGQGTQVTVSS,low polyreactivity
15,QFQLVESAVVLVQAGGSLRLSCAASGGIFGSYAMGWYRQAPGKEMEFVAAIRYGSGSQYYADSVKGRFTISRDNAKNTVYLQMNSLKPEDTAVYYCATEYWGVYGYGFIYDYWGQGTQVTVSS,low polyreactivity
16,QVQLVESGGGLVQAGGSLRLSCAASGRIFKSYVMGWYRQAPGKERELVAAISKRGGRTYYADSVKGRFTISRDNAKNTVYLQMNSLKPEDTAVYYCNATYPVGDFDYWGQGTQVTVSS,high polyreactivity
17,QVQLVESGGGLVQAGGSLRLSCAASGSIFVTYAMGWYRQAPGKERDLVATITNVGRTNYADSVKGRFTISRDNAKNTVYLQMNSLKPEDTAVYYCNADGAPGYPGAYDYWGQGTQVTVSS,low polyreactivity
18,QVQLVESGGGLVQAGGSLRLSCAASGSIIFTNTMGWYRQAPGKERELVAAITSGGSTYYADSVKGRFTISRDNAKNTVYLQMNSLKPEDTAVYYCAAAISYYGKYYRLDYWGQGTQVTVSS,low polyreactivity
19,QVQLVESGGGLVQAGGSLRLSCAASGIFWANTMEWYRQAPGKERELVAAISWSGDRTYYADSVKGRFTISRDNAKNTVYLQMNSLKPEDTAVYYCAAEGTGLQRYGYFGDDGYWGQGTQVTVSS,low polyreactivity
20,QVQLVESGGGLVQAGGSLRLSCAASGSTFVYYVMGWYRQAPGKQRELVAAISTSGGSTYYADSVKGRFTISRDNAKKTVYLQMNSLKPEDTAVYYCAARVYYKYDYWGQGTQVTVSS,low polyreactivity
21,QVQLVESGGGLVQAGGSLRLSCAASGNTSVPYAMGWYRQAPGKERELVARITWSTGRTYYADSVKGRFTISRDNAKNTVYLQMNSLKPVDTAVYYCATEAWLPGSGGDYWGQVTQVTVSS,low polyreactivity
